This assay concerns the target His-G3BP1 (human, UniProt Q13283 1-466). Kind of assay: pull-down.

The record followed here is article PMC4810302 (The Journal of Cell Biology, 2016).

Where no end group is shown, it is not given here.

Chain of His-G3BP1 (Q13283 whole entry): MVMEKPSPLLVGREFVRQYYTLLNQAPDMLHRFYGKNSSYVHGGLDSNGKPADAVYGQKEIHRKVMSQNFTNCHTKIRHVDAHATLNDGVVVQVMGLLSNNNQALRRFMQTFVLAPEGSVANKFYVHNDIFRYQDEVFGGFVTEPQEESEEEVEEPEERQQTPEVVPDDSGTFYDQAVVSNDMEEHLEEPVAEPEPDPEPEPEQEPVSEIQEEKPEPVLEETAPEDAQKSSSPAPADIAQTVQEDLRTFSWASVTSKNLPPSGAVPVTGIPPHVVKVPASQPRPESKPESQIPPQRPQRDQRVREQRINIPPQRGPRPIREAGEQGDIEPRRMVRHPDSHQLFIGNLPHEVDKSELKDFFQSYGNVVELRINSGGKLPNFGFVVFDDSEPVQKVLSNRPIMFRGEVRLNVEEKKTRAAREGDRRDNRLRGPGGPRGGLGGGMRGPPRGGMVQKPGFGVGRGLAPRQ

B1: USP10_(8–25)WT peptide (peptide)
peptide: YIFGDFSPDEFNQFFVTP-biotin
In the case of B1, the binding result was “binds”.
